According to patent US20260193335A1 (ZOETIS SERVICES, published 2026):

How the values were obtained:
[1] = target: T1, Feline FcRn (complex of FcRn-α subunit and β-microglobulin, C-terminal His tag) (feline, UniProt A0ABI7ZNY9 23-296; Q5MGS7 21-118); assay: SPR Biacore, FcRn amine-coupled on CM5, pH 6
T1 construct: treated here as one molecule
Protocol: (§1) Feline FcRn was isolated, prepared and mutant Fc IgGs were assayed against feline FcRn according to Strietzelg et. al. Standard RACE PCR was used to amplify feline FcRn-α subunit and β-microglobulin. FcRn-α subunit and β-microglobulin were co-transfected into HEK 293 cells and the FcRn complex was purified by IMAC affinity purification via the c-terminal His tag. KD's were measured by Biacore 3000 or Biacore T200 (GE Healthcare, Pittsburgh, PA, USA) using a CM5 sensor chip.
(§2) FcRn was immobilized on the surface of the sensor using the standard amine immobilization method to reach the desired surface density. HBS-EP was used as the immobilization running buffer and 10 mM MES; 150 mM NaCl; 0.005% Tween20; 0.5 mg/mL BSA; pH6 and pH7.2 and PBS; 0.005% Tween20; 0.5 mg/mL BSA; pH7.4 were used for method running buffers and titrations. Fc mutant IgGs were flowed over receptor surfaces and affinity was determined using Scrubber2 software analysis (BioLogic Software Pty, Ltd., Campbell, Australia) or T200 evaluation software (Table 2). Blank runs containing buffer only were subtracted out from all runs. Flow cells were regenerated using 50 mM Tris pH8. Runs were performed at 15° C.

[2] = target: T1, Feline FcRn (complex of FcRn-α subunit …); assay: SPR Biacore, FcRn amine-coupled on CM5, pH 7.2
Protocol: as §1, §2

Row | Kd [1] [nM] | Kd [2] [nM] | Binder
1 | 9.58 | 21.6 | Anti-NGF antibody of Table 3, S434G (antibody) heavy: DVQLVESGGDLVKPGGSLRLTCVASGFTYSNYWMHWVRQAPGKGLQWVARIDPYGGGTKHNEKFKRRFTISRDNAKNTLYLQMNSLKTEDTATYYCVRSGYDYYFDVWGQGTLVTVSSASTTAPSVFPLAPSCGTTSGATVALACLVLGYFPEPVTVSWNSGALTSGVHTFPAVLQASGLYSLSSMVTVPSSRWLSDTFTCNVAHPPSNTKVDKTVRKTDHPPGPKPCDCPKCPPPEMLGGPSIFIFPPKPKDTLSISRTPEVTCLVVDLGPDDSDVQITWFVDNTQVYTAKTSPREEQFNSTYRVVSVLPILHQDWLKGKEFKCKVNSKSLPSPIERTISKAKGQPHEPQVYVLPPAQEELSRNKVSVTCLIKSFHPPDIAVEWEITGQPEPENNYRTTPPQLDSDGTYFVYSKLSVDRSHWQRGNTYTCSVSHEALHGHHTQKSLTQSPGK light: EIQMTQSPSSLSASPGDRVTITCRASENIYSFLAWYQQKPGKVPKLLIYNANTLAEGVPSRFSGSGSGTDFTLTISSLEPEDAATYYCQHHFGTPFTFGSGTKLEIKRSDAQPSVFLFQPSLDELHTGSASIVCILNDFYPKEVNVKWKVDGVVQNKGIQESTTEQNSKDSTYSLSSTLTMSSTEYQSHEKFSCEVTHKSLASTLVKSFQRSECQRE
2 | 8.67 | 6.57 | Anti-NGF antibody of Table 3, S434L (antibody) heavy: DVQLVESGGDLVKPGGSLRLTCVASGFTYSNYWMHWVRQAPGKGLQWVARIDPYGGGTKHNEKFKRRFTISRDNAKNTLYLQMNSLKTEDTATYYCVRSGYDYYFDVWGQGTLVTVSSASTTAPSVFPLAPSCGTTSGATVALACLVLGYFPEPVTVSWNSGALTSGVHTFPAVLQASGLYSLSSMVTVPSSRWLSDTFTCNVAHPPSNTKVDKTVRKTDHPPGPKPCDCPKCPPPEMLGGPSIFIFPPKPKDTLSISRTPEVTCLVVDLGPDDSDVQITWFVDNTQVYTAKTSPREEQFNSTYRVVSVLPILHQDWLKGKEFKCKVNSKSLPSPIERTISKAKGQPHEPQVYVLPPAQEELSRNKVSVTCLIKSFHPPDIAVEWEITGQPEPENNYRTTPPQLDSDGTYFVYSKLSVDRSHWQRGNTYTCSVSHEALHLHHTQKSLTQSPGK light: EIQMTQSPSSLSASPGDRVTITCRASENIYSFLAWYQQKPGKVPKLLIYNANTLAEGVPSRFSGSGSGTDFTLTISSLEPEDAATYYCQHHFGTPFTFGSGTKLEIKRSDAQPSVFLFQPSLDELHTGSASIVCILNDFYPKEVNVKWKVDGVVQNKGIQESTTEQNSKDSTYSLSSTLTMSSTEYQSHEKFSCEVTHKSLASTLVKSFQRSECQRE
3 | 6.94 | 0.00847 | Anti-NGF antibody of Table 3, S434N (antibody) heavy: DVQLVESGGDLVKPGGSLRLTCVASGFTYSNYWMHWVRQAPGKGLQWVARIDPYGGGTKHNEKFKRRFTISRDNAKNTLYLQMNSLKTEDTATYYCVRSGYDYYFDVWGQGTLVTVSSASTTAPSVFPLAPSCGTTSGATVALACLVLGYFPEPVTVSWNSGALTSGVHTFPAVLQASGLYSLSSMVTVPSSRWLSDTFTCNVAHPPSNTKVDKTVRKTDHPPGPKPCDCPKCPPPEMLGGPSIFIFPPKPKDTLSISRTPEVTCLVVDLGPDDSDVQITWFVDNTQVYTAKTSPREEQFNSTYRVVSVLPILHQDWLKGKEFKCKVNSKSLPSPIERTISKAKGQPHEPQVYVLPPAQEELSRNKVSVTCLIKSFHPPDIAVEWEITGQPEPENNYRTTPPQLDSDGTYFVYSKLSVDRSHWQRGNTYTCSVSHEALHNHHTQKSLTQSPGK light: EIQMTQSPSSLSASPGDRVTITCRASENIYSFLAWYQQKPGKVPKLLIYNANTLAEGVPSRFSGSGSGTDFTLTISSLEPEDAATYYCQHHFGTPFTFGSGTKLEIKRSDAQPSVFLFQPSLDELHTGSASIVCILNDFYPKEVNVKWKVDGVVQNKGIQESTTEQNSKDSTYSLSSTLTMSSTEYQSHEKFSCEVTHKSLASTLVKSFQRSECQRE
4 | 5.64 | 0.0157 | Anti-NGF antibody of Table 3, S434P (antibody) heavy: DVQLVESGGDLVKPGGSLRLTCVASGFTYSNYWMHWVRQAPGKGLQWVARIDPYGGGTKHNEKFKRRFTISRDNAKNTLYLQMNSLKTEDTATYYCVRSGYDYYFDVWGQGTLVTVSSASTTAPSVFPLAPSCGTTSGATVALACLVLGYFPEPVTVSWNSGALTSGVHTFPAVLQASGLYSLSSMVTVPSSRWLSDTFTCNVAHPPSNTKVDKTVRKTDHPPGPKPCDCPKCPPPEMLGGPSIFIFPPKPKDTLSISRTPEVTCLVVDLGPDDSDVQITWFVDNTQVYTAKTSPREEQFNSTYRVVSVLPILHQDWLKGKEFKCKVNSKSLPSPIERTISKAKGQPHEPQVYVLPPAQEELSRNKVSVTCLIKSFHPPDIAVEWEITGQPEPENNYRTTPPQLDSDGTYFVYSKLSVDRSHWQRGNTYTCSVSHEALHPHHTQKSLTQSPGK light: EIQMTQSPSSLSASPGDRVTITCRASENIYSFLAWYQQKPGKVPKLLIYNANTLAEGVPSRFSGSGSGTDFTLTISSLEPEDAATYYCQHHFGTPFTFGSGTKLEIKRSDAQPSVFLFQPSLDELHTGSASIVCILNDFYPKEVNVKWKVDGVVQNKGIQESTTEQNSKDSTYSLSSTLTMSSTEYQSHEKFSCEVTHKSLASTLVKSFQRSECQRE
5 | 6.76 | 5.06 | Anti-NGF antibody of Table 3, S434K (antibody) heavy: DVQLVESGGDLVKPGGSLRLTCVASGFTYSNYWMHWVRQAPGKGLQWVARIDPYGGGTKHNEKFKRRFTISRDNAKNTLYLQMNSLKTEDTATYYCVRSGYDYYFDVWGQGTLVTVSSASTTAPSVFPLAPSCGTTSGATVALACLVLGYFPEPVTVSWNSGALTSGVHTFPAVLQASGLYSLSSMVTVPSSRWLSDTFTCNVAHPPSNTKVDKTVRKTDHPPGPKPCDCPKCPPPEMLGGPSIFIFPPKPKDTLSISRTPEVTCLVVDLGPDDSDVQITWFVDNTQVYTAKTSPREEQFNSTYRVVSVLPILHQDWLKGKEFKCKVNSKSLPSPIERTISKAKGQPHEPQVYVLPPAQEELSRNKVSVTCLIKSFHPPDIAVEWEITGQPEPENNYRTTPPQLDSDGTYFVYSKLSVDRSHWQRGNTYTCSVSHEALHKHHTQKSLTQSPGK light: EIQMTQSPSSLSASPGDRVTITCRASENIYSFLAWYQQKPGKVPKLLIYNANTLAEGVPSRFSGSGSGTDFTLTISSLEPEDAATYYCQHHFGTPFTFGSGTKLEIKRSDAQPSVFLFQPSLDELHTGSASIVCILNDFYPKEVNVKWKVDGVVQNKGIQESTTEQNSKDSTYSLSSTLTMSSTEYQSHEKFSCEVTHKSLASTLVKSFQRSECQRE
6 | 2.8 | 1.92 | Anti-NGF antibody of Table 3, S434M (antibody) heavy: DVQLVESGGDLVKPGGSLRLTCVASGFTYSNYWMHWVRQAPGKGLQWVARIDPYGGGTKHNEKFKRRFTISRDNAKNTLYLQMNSLKTEDTATYYCVRSGYDYYFDVWGQGTLVTVSSASTTAPSVFPLAPSCGTTSGATVALACLVLGYFPEPVTVSWNSGALTSGVHTFPAVLQASGLYSLSSMVTVPSSRWLSDTFTCNVAHPPSNTKVDKTVRKTDHPPGPKPCDCPKCPPPEMLGGPSIFIFPPKPKDTLSISRTPEVTCLVVDLGPDDSDVQITWFVDNTQVYTAKTSPREEQFNSTYRVVSVLPILHQDWLKGKEFKCKVNSKSLPSPIERTISKAKGQPHEPQVYVLPPAQEELSRNKVSVTCLIKSFHPPDIAVEWEITGQPEPENNYRTTPPQLDSDGTYFVYSKLSVDRSHWQRGNTYTCSVSHEALHMHHTQKSLTQSPGK light: EIQMTQSPSSLSASPGDRVTITCRASENIYSFLAWYQQKPGKVPKLLIYNANTLAEGVPSRFSGSGSGTDFTLTISSLEPEDAATYYCQHHFGTPFTFGSGTKLEIKRSDAQPSVFLFQPSLDELHTGSASIVCILNDFYPKEVNVKWKVDGVVQNKGIQESTTEQNSKDSTYSLSSTLTMSSTEYQSHEKFSCEVTHKSLASTLVKSFQRSECQRE
7 | 14.4 | 18.1 | Anti-NGF antibody of Table 3, S434I (antibody) heavy: DVQLVESGGDLVKPGGSLRLTCVASGFTYSNYWMHWVRQAPGKGLQWVARIDPYGGGTKHNEKFKRRFTISRDNAKNTLYLQMNSLKTEDTATYYCVRSGYDYYFDVWGQGTLVTVSSASTTAPSVFPLAPSCGTTSGATVALACLVLGYFPEPVTVSWNSGALTSGVHTFPAVLQASGLYSLSSMVTVPSSRWLSDTFTCNVAHPPSNTKVDKTVRKTDHPPGPKPCDCPKCPPPEMLGGPSIFIFPPKPKDTLSISRTPEVTCLVVDLGPDDSDVQITWFVDNTQVYTAKTSPREEQFNSTYRVVSVLPILHQDWLKGKEFKCKVNSKSLPSPIERTISKAKGQPHEPQVYVLPPAQEELSRNKVSVTCLIKSFHPPDIAVEWEITGQPEPENNYRTTPPQLDSDGTYFVYSKLSVDRSHWQRGNTYTCSVSHEALHIHHTQKSLTQSPGK light: EIQMTQSPSSLSASPGDRVTITCRASENIYSFLAWYQQKPGKVPKLLIYNANTLAEGVPSRFSGSGSGTDFTLTISSLEPEDAATYYCQHHFGTPFTFGSGTKLEIKRSDAQPSVFLFQPSLDELHTGSASIVCILNDFYPKEVNVKWKVDGVVQNKGIQESTTEQNSKDSTYSLSSTLTMSSTEYQSHEKFSCEVTHKSLASTLVKSFQRSECQRE
8 | 4.8 | 0.0801 | Anti-NGF antibody of Table 3, S434Q (antibody) heavy: DVQLVESGGDLVKPGGSLRLTCVASGFTYSNYWMHWVRQAPGKGLQWVARIDPYGGGTKHNEKFKRRFTISRDNAKNTLYLQMNSLKTEDTATYYCVRSGYDYYFDVWGQGTLVTVSSASTTAPSVFPLAPSCGTTSGATVALACLVLGYFPEPVTVSWNSGALTSGVHTFPAVLQASGLYSLSSMVTVPSSRWLSDTFTCNVAHPPSNTKVDKTVRKTDHPPGPKPCDCPKCPPPEMLGGPSIFIFPPKPKDTLSISRTPEVTCLVVDLGPDDSDVQITWFVDNTQVYTAKTSPREEQFNSTYRVVSVLPILHQDWLKGKEFKCKVNSKSLPSPIERTISKAKGQPHEPQVYVLPPAQEELSRNKVSVTCLIKSFHPPDIAVEWEITGQPEPENNYRTTPPQLDSDGTYFVYSKLSVDRSHWQRGNTYTCSVSHEALHQHHTQKSLTQSPGK light: EIQMTQSPSSLSASPGDRVTITCRASENIYSFLAWYQQKPGKVPKLLIYNANTLAEGVPSRFSGSGSGTDFTLTISSLEPEDAATYYCQHHFGTPFTFGSGTKLEIKRSDAQPSVFLFQPSLDELHTGSASIVCILNDFYPKEVNVKWKVDGVVQNKGIQESTTEQNSKDSTYSLSSTLTMSSTEYQSHEKFSCEVTHKSLASTLVKSFQRSECQRE
